# Source: article PMC8897274 (Structure (London, England : 1993), 2021)
# Numbering of substitutions follows the chain as printed. Ends that are not written are not given here.
# T1: PCNA1–2 heterodimer of S. solfataricus (S. solfataricus, UniProt P57766 1-249; Q97Z84 1-245)
# T1 sequence 1: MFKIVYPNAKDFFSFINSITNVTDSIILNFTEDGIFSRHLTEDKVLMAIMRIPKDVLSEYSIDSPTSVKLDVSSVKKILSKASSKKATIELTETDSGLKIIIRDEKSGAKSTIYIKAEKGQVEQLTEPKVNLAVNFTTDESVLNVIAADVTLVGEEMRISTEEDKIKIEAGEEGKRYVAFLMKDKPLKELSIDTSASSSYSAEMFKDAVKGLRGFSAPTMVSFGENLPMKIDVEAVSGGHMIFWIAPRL
# T1 sequence 2: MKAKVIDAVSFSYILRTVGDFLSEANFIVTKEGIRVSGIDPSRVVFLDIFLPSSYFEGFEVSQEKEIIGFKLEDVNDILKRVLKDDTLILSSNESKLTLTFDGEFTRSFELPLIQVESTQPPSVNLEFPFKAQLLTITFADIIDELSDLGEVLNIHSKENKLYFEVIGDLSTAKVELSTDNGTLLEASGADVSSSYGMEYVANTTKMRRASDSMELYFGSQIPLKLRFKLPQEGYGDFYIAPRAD
# T2: PCNA_(1–2-3) heterotrimer of S. solfataricus (S. solfataricus, UniProt P57766 1-249; Q97Z84 1-245; P57765 1-244)
# T2 sequence 1: T1 sequence 1
# T2 sequence 2: T1 sequence 2
# T2 sequence 3: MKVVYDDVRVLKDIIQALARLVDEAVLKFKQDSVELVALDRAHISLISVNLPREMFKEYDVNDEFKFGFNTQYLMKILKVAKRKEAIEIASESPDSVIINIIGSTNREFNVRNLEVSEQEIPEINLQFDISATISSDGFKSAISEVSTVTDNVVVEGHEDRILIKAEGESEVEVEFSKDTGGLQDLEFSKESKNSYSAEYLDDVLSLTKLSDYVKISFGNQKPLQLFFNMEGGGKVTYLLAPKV
# T3: PCNA1 subunit of S. solfataricus PCNA (S. solfataricus, UniProt P57766 1-249)
# T3 sequence: T1 sequence 1
# T4: PCNA2 subunit of S. solfataricus PCNA (S. solfataricus, UniProt Q97Z84 1-245)
# T4 sequence: T1 sequence 2
# T5: DNA ligase from S. solfataricus (Lig), wild type (S. solfataricus, UniProt Q980T8 1-601)
# T5 sequence: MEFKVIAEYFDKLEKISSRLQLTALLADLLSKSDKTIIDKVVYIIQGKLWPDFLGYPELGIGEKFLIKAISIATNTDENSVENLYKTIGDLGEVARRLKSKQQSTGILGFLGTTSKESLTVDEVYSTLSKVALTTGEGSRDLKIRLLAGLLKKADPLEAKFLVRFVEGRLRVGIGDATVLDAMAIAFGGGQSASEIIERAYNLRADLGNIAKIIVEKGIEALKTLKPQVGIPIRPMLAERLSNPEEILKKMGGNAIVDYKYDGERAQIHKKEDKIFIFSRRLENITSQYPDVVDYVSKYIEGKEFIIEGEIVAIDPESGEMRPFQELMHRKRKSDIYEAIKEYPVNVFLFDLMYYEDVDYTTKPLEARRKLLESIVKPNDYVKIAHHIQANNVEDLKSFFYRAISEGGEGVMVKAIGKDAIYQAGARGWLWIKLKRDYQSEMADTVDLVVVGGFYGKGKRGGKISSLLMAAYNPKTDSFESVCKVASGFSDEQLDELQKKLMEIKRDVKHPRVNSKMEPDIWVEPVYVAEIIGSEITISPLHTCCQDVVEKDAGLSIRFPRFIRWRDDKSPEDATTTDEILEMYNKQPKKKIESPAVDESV
# T6: DNA ligase (Lig);PCNA1-PCNA2-PCNA3 heterotrimer (S. solfataricus;S. solfataricus, UniProt Q980T8;P57766;Q97Z84;P57765 1-601;1-249;1-245;1-244, |)
# T6 sequence 1: T5 sequence
# T6 sequence 2: T1 sequence 1
# T6 sequence 3: T1 sequence 2
# T6 sequence 4: T2 sequence 3
# B1: fluorescently labeled Lig loop peptide (17 residues, PIP motif) (peptide)
# peptide: KSKQQSTGILGFLGTTS
# modifications: also: 6-FAM label, position not given here
# B2: Lig 103/107 QI-AA mutant (enzyme, S. solfataricus)
# chain: T5 sequence with Q103A, I107A
# B3: PCNA3 subunit of S. solfataricus PCNA (natural protein)
# chain: T2 sequence 3
# B4: 47 bp 3'dideoxy nicked DNA (dsDNA)
# DNA 1: GTATCCTCGTAGTGCAGATGCGTC
# DNA 2: GTCGGACTGATTCGGTAGATCTG
# DNA 3: CAGATCTACCGAATCAGTCCGACGACGCATCTGCACTACGAGGATAC
# modifications: 3'-dideoxy terminus of upstream strand; 5'PO4 on downstream strand
# B5: 47 bp nicked DNA, 5'-adenylated (AppDNA) (dsDNA)
# DNA 1: GTATCCTCGTAGTGCAGATGCGTC
# DNA 2: GTCGGACTGATTCGGTAGATCTG
# DNA 3: B4 DNA 3
# modifications: 5'-App (adenylated 5'PO4) on downstream strand; 3'OH at nick
# B6: 47 bp ligatable nicked DNA (dsDNA)
# DNA 1: GTATCCTCGTAGTGCAGATGCGTC
# DNA 2: GTCGGACTGATTCGGTAGATCTG
# DNA 3: B4 DNA 3
# modifications: 5'PO4 on downstream strand; 3'OH at nick
# B7: 47 bp end-joined duplex DNA (dsDNA)
# DNA 1: GTATCCTCGTAGTGCAGATGCGTCGTCGGACTGATTCGGTAGATCTG
# DNA 2: B4 DNA 3
# Legend:
# [1] = target: T1, PCNA1–2 heterodimer of S. solfataricus; assay: fluorescence polarisation
# [2] = target: B3; assay: fluorescence polarisation
# [3] = target: T2, PCNA_(1–2-3) heterotrimer of S. …; assay: fluorescence polarisation
# [4] = target: T2, PCNA_(1–2-3) heterotrimer of S. …; assay: SEC
# [5] = target: T3, PCNA1 subunit of S. solfataricus PCNA; assay: cryo-EM structure
# [6] = target: T4, PCNA2 subunit of S. solfataricus PCNA; assay: cryo-EM structure
# [7] = target: T5, DNA ligase from S. solfataricus (Lig), …; assay: negative stain electron microscopy
# [8] = target: T6, DNA ligase (Lig);PCNA1-PCNA2-PCNA3 …; assay: cryo-EM
# [9] = target: T6, DNA ligase (Lig);PCNA1-PCNA2-PCNA3 …; assay: cryo-EM; remark: listed apart in the source
# [10] = target: T6, DNA ligase (Lig);PCNA1-PCNA2-PCNA3 …; assay: gel filtration co-elution
# [11] = target: T6, DNA ligase (Lig);PCNA1-PCNA2-PCNA3 …; assay: cryo-EM; remark: listed apart in the source
binder,measurement,setting,value
B1,Kd,[1],177 ± 74.4 µM
same,Kd,[2],32.5 ± 6.6 µM
same,Kd,[3],13.1 ± 2.5 µM
B2,binding result,[4],binds
B3,binding result,[5],binds
same,binding result,[6],binds
same,binding result,[7],binds
B4,binding result,[8],binds
B5,binding result,[9],binds
B6,binding result,[10],binds
B7,binding result,[11],binds
